Measurements taken from US6072028, “EPR-1 proteins, polypeptides, and nucleic acid molecules encoding same” (The Scripps Research Institute, dated 2000).

Tests used:
coagulation factor Xa [1] = molecular target: T1, coagulation factor Xa (human, UniProt P00742); experiment: saturation binding of ^125 I-Xa to HuT 78* cells, 2.5 mM CaCl2
Method: The procedures for the isolation, characterization, and ^125I-labelling of factor Xa were as described previously by Altieri, et al., *J. Biol. Chem.* 264: 2969 (1989). The interaction of ^125I-Xa with HuT 78* cells was analyzed by incubating increasing concentrations of ^125I-Xa (0.45 to 36 nM) with cell suspension at 1.5 to 2×10^7/ml in the presence of 2.5 mM CaCl_2 for 20 minutes at room temperature. At the end of the incubation, the reaction was terminated by centrifugation of aliquots of the cell suspension at 12,000×g for 2 minutes through a mixture of silicone oil to separate free from cell-associated radioactivity. Nonspecific binding was quantified in the presence of 50-fold molar excess of unlabelled factor Xa added at the start of the incubation reaction, and was subtracted from the total to yield net specific binding. In some studies, aliquots of HuT 78* cells were preincubated with 50 µg/ml of mAb 9D4 for 30 minutes at room temperature before the addition of serial concentrations of ^125I-Xa.
HuT 78* cells reacting with the rabbit polyclonal antiserum B78.9 were isolated to 94.2% purity by fluorescence sorting and cloned by limiting dilution. […] The reaction was terminated by centrifugation through mixture of silicone oils and ^125I-Xa specific binding to HuT 78* cells was calculated in the presence or absence of anti-EPR-1 mAb 9D4.

coagulation factor Xa [2] = molecular target: T1, coagulation factor Xa; experiment: saturation binding of ^125 I-factor Xa (0.45-36 nM) to EPR-1 CHO transfectants, 2.5 mM CaCl2
Method: In FIG. A, wild-type (WT) CHO cells (closed squares) or EPR-1 CHO transfectants (closed circles) were incubated with increasing concentrations of ^125I-factor Xa (0.45–36 nM) for 15 minutes at 22° C. In the presence of 2.5 mM CaCl_2. Non-specific binding was assessed in the presence of a 50-fold molar excess of unlabeled factor Xa and was subtracted from the total to calculate net specific binding. Data are the mean±S.E.M. of two independent experiments. ^125I-factor Xa bound at saturation (27 nM) to EPR-1 CHO transfectants corresponded to 729,000±102,000 molecules/cell. […] Thrombin formation in the presence or in the absence of anti-EPR-1 mAb 9D4 (Altieri, et al., Id. (1990)) was assessed by a sensitive clotting assay as described (Altieri, et al., Id. (1989)). Data are expressed as mean±S.E.M. of two independent experiments.
The experimental procedures for the isolation, characterization and ^125I-labeling of factor Xa have been described previously (Altieri, et al., Id. (1989)). […] In the presence of 2.5 mM CaCl_2, before separation of free from cell-associated radioactivity by centrifugation through mixture of silicone oil (Dow Corning, New Bedford, Mass.) at 15,000 xg for 5 minutes at 22° C. Non-specific binding was assessed in the presence of a 50-fold molar excess of unlabeled factor Xa and was subtracted from the total to calculate net specific binding. […]

B1: Effector cell Protease Receptor-1 (EPR-1), on the cell surface (receptor)
chain: MTSRGFQRSCNNPPCSSMTGRRANQIHHLTPDFSLRELLPPKKAGTWADCVSPPCGERDRCEGWADRHTACSSPASTCQVHTQDCDSLNNMRSRHIHCGRLCHANKAVSSSKRDTAFFLPHFSPGKPGNQNSKNEPPKKRERERSSHCYPAAPAAQAEAPLVPLSRQNKSTVETSNLKMLISFPKTLLRGPQEGWWHQGINPGSGAATLGPGSSERPQSIEASCSMARRTFFAVSSNSFFLLLVSFAILFLALSLSSFKNSPRVNSSNCFLTERKAQPDECFLCSSMGSSSGSQPSSSLKQKKHWAKSGSFSVGQWMKPASAIRSGVQRSPPRRASS
Work on B1 yielded a Kd (coagulation factor Xa [1]) of 10 to 20 nM and a Kd (coagulation factor Xa [2]) of 10 to 15 nM.
